Test results published in patent US20180030118A1.

Experiments:
Test in all cases: ELISA, GP coated 200 ng/well, mAb at 2 ug/mL; negative control
[1] = biological target: MARV Musoke GPe (Marburg virus, strain Musoke) (UniProt P35253)
[2] = biological target: MARV Ravn GPe (Marburg virus, strain Ravn) (UniProt Q1PDC7)
[3] = biological target: MARV Angola GPe (Marburg virus, strain Angola) (UniProt Q1PD50)
MARV Angola GPe (Marburg virus, strain Angola), sequence (Q1PD50 19-648): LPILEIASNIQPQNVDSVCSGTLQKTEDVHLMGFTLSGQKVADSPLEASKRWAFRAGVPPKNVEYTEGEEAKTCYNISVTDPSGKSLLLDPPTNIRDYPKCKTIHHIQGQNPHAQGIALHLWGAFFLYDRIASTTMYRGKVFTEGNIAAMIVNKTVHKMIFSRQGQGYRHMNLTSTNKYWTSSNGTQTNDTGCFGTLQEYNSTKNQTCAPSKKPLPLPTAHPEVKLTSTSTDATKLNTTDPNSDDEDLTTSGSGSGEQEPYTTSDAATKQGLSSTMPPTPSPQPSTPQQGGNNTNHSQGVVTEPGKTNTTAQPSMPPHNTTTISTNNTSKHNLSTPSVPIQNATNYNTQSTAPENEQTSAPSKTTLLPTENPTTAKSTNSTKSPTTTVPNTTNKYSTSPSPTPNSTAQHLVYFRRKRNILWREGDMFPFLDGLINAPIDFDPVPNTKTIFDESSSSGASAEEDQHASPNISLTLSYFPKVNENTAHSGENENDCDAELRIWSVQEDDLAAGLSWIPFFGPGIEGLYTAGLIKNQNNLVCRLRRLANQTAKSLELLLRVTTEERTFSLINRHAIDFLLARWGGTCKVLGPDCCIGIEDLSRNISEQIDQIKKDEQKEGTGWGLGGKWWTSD

MARV Musoke GPe (Marburg virus, strain Musoke), sequence (P35253 19-648): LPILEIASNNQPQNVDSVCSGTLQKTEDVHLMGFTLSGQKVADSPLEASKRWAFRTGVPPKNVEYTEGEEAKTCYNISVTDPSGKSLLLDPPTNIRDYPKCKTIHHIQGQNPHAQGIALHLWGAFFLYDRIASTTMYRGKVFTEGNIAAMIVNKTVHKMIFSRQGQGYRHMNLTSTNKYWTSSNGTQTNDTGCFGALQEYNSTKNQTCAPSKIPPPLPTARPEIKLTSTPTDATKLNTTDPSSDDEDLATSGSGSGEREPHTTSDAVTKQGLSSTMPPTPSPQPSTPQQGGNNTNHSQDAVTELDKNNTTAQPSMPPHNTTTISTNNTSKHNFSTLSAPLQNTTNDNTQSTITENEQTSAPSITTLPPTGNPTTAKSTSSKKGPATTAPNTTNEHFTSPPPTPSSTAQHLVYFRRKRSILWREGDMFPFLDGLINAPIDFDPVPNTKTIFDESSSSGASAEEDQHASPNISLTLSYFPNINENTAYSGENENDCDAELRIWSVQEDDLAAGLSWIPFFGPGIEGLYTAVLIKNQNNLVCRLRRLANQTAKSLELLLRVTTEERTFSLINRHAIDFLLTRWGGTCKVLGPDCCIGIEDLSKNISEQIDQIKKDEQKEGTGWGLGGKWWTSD
MARV Ravn GPe (Marburg virus, strain Ravn), sequence (Q1PDC7 19-648): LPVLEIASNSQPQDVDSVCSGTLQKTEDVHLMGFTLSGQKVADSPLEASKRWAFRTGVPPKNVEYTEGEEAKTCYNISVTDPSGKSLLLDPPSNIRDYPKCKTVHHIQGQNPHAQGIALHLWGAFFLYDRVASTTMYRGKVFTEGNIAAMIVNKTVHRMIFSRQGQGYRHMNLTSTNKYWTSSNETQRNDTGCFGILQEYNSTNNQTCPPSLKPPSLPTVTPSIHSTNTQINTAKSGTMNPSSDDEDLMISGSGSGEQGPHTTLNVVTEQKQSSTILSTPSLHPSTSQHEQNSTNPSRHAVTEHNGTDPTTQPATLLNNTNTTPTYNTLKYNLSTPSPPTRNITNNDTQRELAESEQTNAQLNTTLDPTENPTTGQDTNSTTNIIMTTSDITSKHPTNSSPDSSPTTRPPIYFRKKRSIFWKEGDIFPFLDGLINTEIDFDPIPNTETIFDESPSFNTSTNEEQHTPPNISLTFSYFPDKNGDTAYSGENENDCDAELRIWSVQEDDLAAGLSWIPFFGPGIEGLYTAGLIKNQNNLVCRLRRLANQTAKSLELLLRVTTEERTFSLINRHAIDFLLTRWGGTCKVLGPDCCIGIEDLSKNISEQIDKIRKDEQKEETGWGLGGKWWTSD

Row | Substance | OD405 @ 30 min [1] | OD405 @ 30 min [2] | OD405 @ 30 min [3]
1 | IgG Neg Control (human) (antibody) | 0.056 OD405 | 0.052 OD405 | 0.054 OD405
2 | IgG Neg Control (murine) (antibody) | 0.049 OD405 | 0.049 OD405 | 0.047 OD405
